# In patent US20220411483A1 (Chugai, published 2022):
# Numbering of substitutions follows the chain as printed. Names and notes keep the numbering of the source.
# T1: FcgRIIaR (human, UniProt P12318 34-217)
# T1 construct: extracellular domain; also called FcγRIIa R type; FcγRIIa (R type)
# T1 sequence (looked up): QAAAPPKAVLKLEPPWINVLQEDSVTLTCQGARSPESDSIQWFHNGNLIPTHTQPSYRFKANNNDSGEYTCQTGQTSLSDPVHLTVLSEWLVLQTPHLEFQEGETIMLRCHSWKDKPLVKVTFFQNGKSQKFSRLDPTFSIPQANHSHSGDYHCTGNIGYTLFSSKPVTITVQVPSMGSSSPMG
# T2: FcgRIIaH (human, UniProt P12318 34-217)
# T2 construct: extracellular domain; also called FcγRIIa H type
# T2 sequence (looked up): T1 sequence (looked up) with R134H
# T3: FcgRIIb (human, UniProt P31994 43-217)
# T3 construct: extracellular domain; also called FcγRIIb
# T3 sequence (looked up): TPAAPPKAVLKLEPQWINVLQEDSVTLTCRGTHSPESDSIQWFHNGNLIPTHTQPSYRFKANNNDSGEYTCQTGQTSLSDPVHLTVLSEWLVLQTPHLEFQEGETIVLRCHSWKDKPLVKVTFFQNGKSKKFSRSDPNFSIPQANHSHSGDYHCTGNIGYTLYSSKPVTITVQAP
# T4: FcγRIIa R type extracellular domain, His tag (human, UniProt P12318 34-217)
# T4 construct: extracellular domain; also called FcgRIIaR
# T4 sequence (looked up): T1 sequence (looked up)
# T5: FcγRIIb extracellular domain, His tag (human, UniProt P31994 43-217)
# T5 construct: extracellular domain; also called FcgRIIb
# T5 sequence (looked up): T3 sequence (looked up)
# B1: IL6R-P625/IL6R-L (antibody, human IgG1, kappa)
# heavy: QVQLQESGPGLVKPSETLSLTCAVSGHSISHDHAWSWVRQPPGEGLEWIGFISYSGITNYNPSLQGRVTISRDNSKNTLYLQMNSLRAEDTAVYYCARSLARTTAMDYWGEGTLVTVSSASTKGPSVFPLAPSSKSTSGGTAALGCLVKDYFPEPVTVSWNSGALTSGVHTFPAVLQSSGLYSLSSVVTVPSSSLGTQTYICNVNHKPSNTKVDKKVEPKSCDKTHTCPPCPAPDKLGGDSVFLFPPKPKDTLMISRTPEVTCVVIDVAEEDGEVKFNWYVDGVEVHNAKTKPREEQYNSTYRVVSVLTVLHQDWLNGKEYKCKVSNKALPAPIEKTISKAKGQPREPQVYTLPPSRDELTKNQVSLTCLVKGFYPSDIAVEWESNGQPENNYKTTPPVLDSDGSFFLYSKLTVDKSRWQQGNVFSCSVMHEALHNHYTQKSLSLSP
# light: not shown
# B2: IL6R-P626/IL6R-L (antibody, human IgG1, kappa)
# heavy: B1 heavy with K236R
# light: not shown
# B3: IL6R-P629/IL6R-L (antibody, human IgG1, kappa)
# heavy: B1 heavy with K236L, G239K
# light: not shown
# B4: IL6R-P631/IL6R-L (antibody, human IgG1, kappa)
# heavy: B1 heavy with K236L, D267N
# light: not shown
# B5: IL6R-F652/IL6R-L (antibody, human IgG1, kappa)
# heavy: B1 heavy with D235E, K236L, M254Y, I266V, A269S, E270H, G273P, N436Y
# light: not shown
# notes: IL6R-F648 (P238D) with M252Y and N434Y
# B6: IL6R-PD004/IL6R-L (antibody, human IgG1, kappa)
# heavy: B1 heavy with D235E, K236L, M254Y, I266V, A269S, E270P, G273P, N436Y
# light: not shown
# B7: IL6R-PD013/IL6R-L (antibody, human IgG1, kappa)
# heavy: B1 heavy with D235E, K236L, M254Y, I266V, A269S, E270H, G273P, S326H, N436Y
# light: not shown
# B8: IL6R-PD047/IL6R-L (antibody, human IgG1, kappa)
# heavy: B1 heavy with D235E, K236L, L237F, M254Y, I266V, A269S, E270H, G273P, N436Y
# light: not shown
# B9: IL6R-PD089/IL6R-L (antibody, human IgG1, kappa)
# heavy: B1 heavy with D235E, K236L, G239Q, M254Y, I266V, A269S, E270H, G273P, N436Y
# light: not shown
# B10: IL6R-PD023/IL6R-L (antibody, human IgG1, kappa)
# heavy: B1 heavy with D235E, K236L, M254Y, I266V, A269S, E270H, G273P, A332H, N436Y
# light: not shown
# B11: IL6R-PD012/IL6R-L (antibody, human IgG1, kappa)
# heavy: B1 heavy with D235E, K236L, M254Y, I266V, A269S, E270H, G273P, S326N, N436Y
# light: not shown
# B12: IL6R-PD024/IL6R-L (antibody, human IgG1, kappa)
# heavy: B1 heavy with D235E, K236L, M254Y, I266V, A269S, E270H, G273P, A332Y, N436Y
# light: not shown
# B13: IL6R-BP321/IL6R-L (antibody, human IgG1, kappa, name in EU numbering)
# heavy: B1 heavy with K236L, G239D, I266V, D267N, A269S, K441E
# light: not shown
# B14: IL6R-BP318/IL6R-L (antibody, human IgG1, kappa, name in EU numbering)
# heavy: B1 heavy with K236L, G239D, I266V, D267K, A269S, K441E
# light: not shown
# B15: IL6R-BP361/IL6R-L (antibody, human IgG1, kappa, name in EU numbering)
# heavy: B1 heavy with K236L, G239D, I266V, A269R, K441E
# light: not shown
# Target: T6, FcgRIa (human, UniProt P12314 16-292)
# T6 construct: also called FcγRIa; FcγRI
# T6 sequence (P12314 16-292): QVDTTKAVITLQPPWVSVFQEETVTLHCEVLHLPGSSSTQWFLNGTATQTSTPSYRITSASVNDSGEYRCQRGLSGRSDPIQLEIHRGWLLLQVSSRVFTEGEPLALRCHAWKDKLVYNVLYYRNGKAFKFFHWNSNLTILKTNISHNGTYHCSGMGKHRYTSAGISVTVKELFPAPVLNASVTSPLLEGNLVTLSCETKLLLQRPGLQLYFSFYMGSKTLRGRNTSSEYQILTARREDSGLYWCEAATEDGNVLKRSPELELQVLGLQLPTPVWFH
# Assay: SPR (Biacore)
row,Binder,Relative FcgRIa-binding Activity
1,B1,0.0007 KD(G1d)/KD(variant)
2,B2,0.0004 KD(G1d)/KD(variant)
3,B3,0.1 KD(G1d)/KD(variant)
4,B4,0.03 KD(G1d)/KD(variant)

# Target: T1, FcgRIIaR
# Assay: SPR (Biacore)
row,Binder,Relative FcgRIIaR-binding Activity
1,B1,0.051 KD(G1d)/KD(variant)
2,B2,0.041 KD(G1d)/KD(variant)
3,B3,0.047 KD(G1d)/KD(variant)
4,B4,0.048 KD(G1d)/KD(variant)

# Target: T2, FcgRIIaH
# Assay: SPR (Biacore)
row,Binder,Relative FcgRIIaH-binding Activity
1,B1,0.005 KD(G1d)/KD(variant)
2,B2,0.005 KD(G1d)/KD(variant)
3,B3,0.01 KD(G1d)/KD(variant)
4,B4,0.01 KD(G1d)/KD(variant)

# Target: T3, FcgRIIb
# Assay: SPR (Biacore)
row,Binder,Relative FcgRIIb-binding Activity
1,B1,3.06 KD(G1d)/KD(variant)
2,B2,1.9 KD(G1d)/KD(variant)
3,B3,7.97 KD(G1d)/KD(variant)
4,B4,1.16 KD(G1d)/KD(variant)

# Target: T7, FcgRIIIaV (human, UniProt P08637 17-208)
# T7 construct: extracellular domain; also called FcγRIIIa V type
# T7 sequence (P08637 17-208 F176V): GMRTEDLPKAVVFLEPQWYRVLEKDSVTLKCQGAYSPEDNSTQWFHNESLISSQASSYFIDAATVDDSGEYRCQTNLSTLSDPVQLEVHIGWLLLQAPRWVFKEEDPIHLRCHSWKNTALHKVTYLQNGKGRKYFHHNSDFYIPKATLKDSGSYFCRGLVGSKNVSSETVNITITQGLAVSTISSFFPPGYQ
# Assay: SPR (Biacore)
row,Binder,Relative FcgRIIIaV-binding Activity
1,B1,0.005 KD(G1d)/KD(variant)
2,B2,0.005 KD(G1d)/KD(variant)
3,B3,0.007 KD(G1d)/KD(variant)
4,B4,0.007 KD(G1d)/KD(variant)

# Target: T4, FcγRIIa R type extracellular domain, …
# Assay: SPR, bound amount per captured antibody
row,Binder,Relative FcgRIIaR-binding Activity
1,B5,100 % of IL6R-F652/IL6R-L
2,B6,77 % of IL6R-F652/IL6R-L
3,B7,90.8 % of IL6R-F652/IL6R-L
4,B8,89.9 % of IL6R-F652/IL6R-L
5,B9,65 % of IL6R-F652/IL6R-L
6,B10,73.9 % of IL6R-F652/IL6R-L
7,B11,92.5 % of IL6R-F652/IL6R-L
8,B12,60 % of IL6R-F652/IL6R-L

# Target: T5, FcγRIIb extracellular domain, His tag
# Assay: SPR, bound amount per captured antibody
row,Binder,Relative FcgRIIb-binding Activity
1,B5,100 % of IL6R-F652/IL6R-L
2,B6,80.5 % of IL6R-F652/IL6R-L
3,B7,91.9 % of IL6R-F652/IL6R-L
4,B8,95.4 % of IL6R-F652/IL6R-L
5,B9,66 % of IL6R-F652/IL6R-L
6,B10,102 % of IL6R-F652/IL6R-L
7,B11,102 % of IL6R-F652/IL6R-L
8,B12,74.4 % of IL6R-F652/IL6R-L

# Target: T1, FcgRIIaR
# Assay: SPR, amount bound per captured antibody
row,Binder,Relative FcgRIIaR-binding Activity [IL6R-BP267/IL6R-L=100]
1,B13,16.3
2,B14,4.3
3,B15,17.3

# Target: T3, FcgRIIb
# Assay: SPR, amount bound per captured antibody
row,Binder,Relative FcgRIIb-binding Activity [IL6R-BP267/IL6R-L=100]
1,B13,31.7
2,B14,2.3
3,B15,27.7

# Target: T1, FcgRIIaR
# Assay: SPR, amount bound per captured antibody
# Remark: another data set of the same source
row,Binder,Relative FcgRIIaR-binding Activity [IL6R-G1d/IL6R-L=100]
1,B1,26.8
2,B2,24.4
3,B3,29.9
4,B4,26.7

# Target: T3, FcgRIIb
# Assay: SPR, amount bound per captured antibody
# Remark: another data set of the same source
row,Binder,Relative FcgRIIb-binding Activity [IL6R-G1d/IL6R-L=100]
1,B1,141
2,B2,129
3,B3,164
4,B4,110
